Laboratory results taken from PMC4278678 (Biochemistry, 2014).
Read-outs that look alike come from different tables or passages of the source.

Columns and labels:
cross-linking [1] = biological target: the molecule itself; experiment: cross-linking
cross-linking [2] = biological target: the molecule itself; experiment: cross-linking; remark: listed apart in the source

Row | Protein | stoichiometry N (cross-linking [1]) | stoichiometry N (cross-linking [2])
1 | 9xHis-SUMO-NEMO(44–111)(des2C/C54), covalent dimer (domain or fragment, human, UniProt Q9Y6K9 44-111, looked up, also: covalent dimer via interchain disulfide at Cys54) {9xHis‑SUMO}-EQGAPETLQRCLEENQELRDAIRQSNQILRERAEELLHFQASQREEKEFLMAKFQEARKLVERLGLEK | 2 | 
2 | 9xHis-SUMO-NEMO(44–111)(des3C/L107C), covalent dimer (domain or fragment, human, UniProt Q9Y6K9 44-111, looked up, also: covalent dimer via interchain disulfide at Cys107) {9xHis‑SUMO}-EQGAPETLQRALEENQELRDAIRQSNQILRERAEELLHFQASQREEKEFLMAKFQEARKLVERCGLEK | 2 | 
3 | 9xHis-SUMO-NEMO(44–111)(des2C/C54/L107C), covalent dimer (domain or fragment, human, UniProt Q9Y6K9 44-111, looked up, also: covalent dimer via interchain disulfides at Cys54 and Cys107) {9xHis‑SUMO}-EQGAPETLQRCLEENQELRDAIRQSNQILRERAEELLHFQASQREEKEFLMAKFQEARKLVERCGLEK | 2 | 
4 | FLAG-tagged 7xAla/L107C NEMO (natural protein, human, UniProt Q9Y6K9 1-419, looked up) MNRHLWKSQLAEMVQPSGGPAADQDVLGEESPLGKPAMLHLPSEQGAPETLQRALEENQELRDAIRQSNQILRERAEELLHFQASQREEKEFLMAKFQEARKLVERCGLEKLDLKRQKEQALREVEHLKRAQQQMAEDKASVKAQVTSLLGELQESQSRLEAATKEAQALEGRARAASEQARQLESEREALQQQHSVQVDQLRMQGQSVEAALRMERQAASEEKRKLAQLQVAYHQLFQEYDNHIKSSVVGSERKRGMQLEDLKQQLQQAEEALVAKQEVIDKLKEEAEQHKIVMETVPVLKAQADIYKADFQAERQAREKLAEKKELLQEQLEQLQREYSKLKASAQESARIEDMRKRHVEVSQAPLPPAPAYLSSPLALPSQRRSPPEEPPDFCCPKCQYQAPDMDTLQIHVMECIE |  | 2
5 | 9xHis-SUMO-NEMO(1–120)(des3C/C54), oxidised covalent dimer (domain or fragment, human, UniProt Q9Y6K9 1-120, looked up, interchain disulfide bond at Cys54) MNRHLWKSQLAEMVQPSGGPAADQDVLGEESPLGKPAMLHLPSEQGAPETLQRCLEENQELRDAIRQSNQILRERAEELLHFQASQREEKEFLMAKFQEARKLVERLGLEKLDLKRQKEQ | 2 | 
6 | 9xHis-SUMO-NEMO(1–120)(des3C/C54/L107C), covalent dimer (domain or fragment, human, UniProt Q9Y6K9 1-120, looked up, interchain disulfide bonds at Cys54 and Cys107) MNRHLWKSQLAEMVQPSGGPAADQDVLGEESPLGKPAMLHLPSEQGAPETLQRCLEENQELRDAIRQSNQILRERAEELLHFQASQREEKEFLMAKFQEARKLVERCGLEKLDLKRQKEQ | 2 | 
7 | 9xHis-SUMO-NEMO(1–120)(des4C/L107C), covalent dimer (domain or fragment, human, UniProt Q9Y6K9 1-120, looked up, interchain disulfide bond at Cys107) MNRHLWKSQLAEMVQPSGGPAADQDVLGEESPLGKPAMLHLPSEQGAPETLQRALEENQELRDAIRQSNQILRERAEELLHFQASQREEKEFLMAKFQEARKLVERCGLEKLDLKRQKEQ | 2 | 
